Where no end group is shown, it is not given here.
Legend:
[1] = biological target: T1, human plasma fibronectin (human, UniProt P02751-8 32-2296, limits assumed); assay: ELISA; ECM protein coated at 100 nM, soluble protein 0-100 nM, one-site fit
T1 construct: Coated on ELISA plates at 100 nM; also called Fn
Procedure: (§1) ELISA plates (Medium binding, Greiner bio-one) were coated with 100 nM of ECM proteins in 50 μl of PBS for 1 h at 37° C.; human plasma fibronectin (Sigma), human vitronectin (Peprotech), human tenascin C (R&D Systems), human fibrinogen (Enzyme Research Laboratories). Then, wells were washed with PBS-T (PBS with 0.05% Tween-20) and blocked with 300 l PBS-T containing 1% BSA for 1 h at room temperature. ECM and control wells (no ECM and blocked with BSA) were further incubated 1 h at room temperature with solutions of murine PDGF-BB (Peprotech), IL-1Ra (R&D Systems), or PIGF₁₂₃₋₁₄₁-fused proteins at concentrations ranging from 0 to 100 nM (50 μl in PBS-T containing 0.1% BSA; PROKEEP tubes, Watson bio lab). Then, wells were washed 3 times with PBS-T and bound PDGF-BB and IL-1Ra variants were detected using biotinylated antibodies in PBS-T containing 0.1% BSA. Antibodies used were from PDGF-BB DuoSet ELISA (R&D Systems, DY8464) for PDGF-BB and IL-1ra/IL-1F3 DuoSet ELISA (R&D Systems, DY480) for IL-1Ra. To calculate the dissociation constants (KD) specific-binding values were fitted with a one site specific binding model using A₄₅₀ nm=Bmax*[growth factors or IL-1Ra variants]/(KD+[growth factors or IL-1Ra variants]).

[2] = biological target: T2, human vitronectin (human, UniProt P04004 20-478); assay: as above
T2 construct: Coated on ELISA plates at 100 nM; also called Vn
T2 sequence (P04004 20-478 limits assumed): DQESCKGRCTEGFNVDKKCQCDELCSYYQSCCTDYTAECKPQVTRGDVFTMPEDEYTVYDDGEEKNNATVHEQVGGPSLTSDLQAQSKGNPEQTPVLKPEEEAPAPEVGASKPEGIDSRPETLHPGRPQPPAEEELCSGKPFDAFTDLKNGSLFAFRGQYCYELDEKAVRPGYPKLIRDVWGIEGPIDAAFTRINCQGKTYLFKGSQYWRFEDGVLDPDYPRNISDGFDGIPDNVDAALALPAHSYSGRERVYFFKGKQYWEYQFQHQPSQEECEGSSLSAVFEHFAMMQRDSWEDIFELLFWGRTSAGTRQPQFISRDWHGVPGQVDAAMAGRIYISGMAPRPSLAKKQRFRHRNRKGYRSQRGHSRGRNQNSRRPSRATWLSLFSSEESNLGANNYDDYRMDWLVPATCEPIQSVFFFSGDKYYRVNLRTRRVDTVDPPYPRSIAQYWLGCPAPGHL
Procedure: as §1

[3] = biological target: T3, human tenascin C (human, UniProt P24821 23-2201, limits assumed); assay: as above
T3 construct: Coated on ELISA plates at 100 nM; also called TnC; Tnc
T3 sequence (P24821 23-2201 limits assumed): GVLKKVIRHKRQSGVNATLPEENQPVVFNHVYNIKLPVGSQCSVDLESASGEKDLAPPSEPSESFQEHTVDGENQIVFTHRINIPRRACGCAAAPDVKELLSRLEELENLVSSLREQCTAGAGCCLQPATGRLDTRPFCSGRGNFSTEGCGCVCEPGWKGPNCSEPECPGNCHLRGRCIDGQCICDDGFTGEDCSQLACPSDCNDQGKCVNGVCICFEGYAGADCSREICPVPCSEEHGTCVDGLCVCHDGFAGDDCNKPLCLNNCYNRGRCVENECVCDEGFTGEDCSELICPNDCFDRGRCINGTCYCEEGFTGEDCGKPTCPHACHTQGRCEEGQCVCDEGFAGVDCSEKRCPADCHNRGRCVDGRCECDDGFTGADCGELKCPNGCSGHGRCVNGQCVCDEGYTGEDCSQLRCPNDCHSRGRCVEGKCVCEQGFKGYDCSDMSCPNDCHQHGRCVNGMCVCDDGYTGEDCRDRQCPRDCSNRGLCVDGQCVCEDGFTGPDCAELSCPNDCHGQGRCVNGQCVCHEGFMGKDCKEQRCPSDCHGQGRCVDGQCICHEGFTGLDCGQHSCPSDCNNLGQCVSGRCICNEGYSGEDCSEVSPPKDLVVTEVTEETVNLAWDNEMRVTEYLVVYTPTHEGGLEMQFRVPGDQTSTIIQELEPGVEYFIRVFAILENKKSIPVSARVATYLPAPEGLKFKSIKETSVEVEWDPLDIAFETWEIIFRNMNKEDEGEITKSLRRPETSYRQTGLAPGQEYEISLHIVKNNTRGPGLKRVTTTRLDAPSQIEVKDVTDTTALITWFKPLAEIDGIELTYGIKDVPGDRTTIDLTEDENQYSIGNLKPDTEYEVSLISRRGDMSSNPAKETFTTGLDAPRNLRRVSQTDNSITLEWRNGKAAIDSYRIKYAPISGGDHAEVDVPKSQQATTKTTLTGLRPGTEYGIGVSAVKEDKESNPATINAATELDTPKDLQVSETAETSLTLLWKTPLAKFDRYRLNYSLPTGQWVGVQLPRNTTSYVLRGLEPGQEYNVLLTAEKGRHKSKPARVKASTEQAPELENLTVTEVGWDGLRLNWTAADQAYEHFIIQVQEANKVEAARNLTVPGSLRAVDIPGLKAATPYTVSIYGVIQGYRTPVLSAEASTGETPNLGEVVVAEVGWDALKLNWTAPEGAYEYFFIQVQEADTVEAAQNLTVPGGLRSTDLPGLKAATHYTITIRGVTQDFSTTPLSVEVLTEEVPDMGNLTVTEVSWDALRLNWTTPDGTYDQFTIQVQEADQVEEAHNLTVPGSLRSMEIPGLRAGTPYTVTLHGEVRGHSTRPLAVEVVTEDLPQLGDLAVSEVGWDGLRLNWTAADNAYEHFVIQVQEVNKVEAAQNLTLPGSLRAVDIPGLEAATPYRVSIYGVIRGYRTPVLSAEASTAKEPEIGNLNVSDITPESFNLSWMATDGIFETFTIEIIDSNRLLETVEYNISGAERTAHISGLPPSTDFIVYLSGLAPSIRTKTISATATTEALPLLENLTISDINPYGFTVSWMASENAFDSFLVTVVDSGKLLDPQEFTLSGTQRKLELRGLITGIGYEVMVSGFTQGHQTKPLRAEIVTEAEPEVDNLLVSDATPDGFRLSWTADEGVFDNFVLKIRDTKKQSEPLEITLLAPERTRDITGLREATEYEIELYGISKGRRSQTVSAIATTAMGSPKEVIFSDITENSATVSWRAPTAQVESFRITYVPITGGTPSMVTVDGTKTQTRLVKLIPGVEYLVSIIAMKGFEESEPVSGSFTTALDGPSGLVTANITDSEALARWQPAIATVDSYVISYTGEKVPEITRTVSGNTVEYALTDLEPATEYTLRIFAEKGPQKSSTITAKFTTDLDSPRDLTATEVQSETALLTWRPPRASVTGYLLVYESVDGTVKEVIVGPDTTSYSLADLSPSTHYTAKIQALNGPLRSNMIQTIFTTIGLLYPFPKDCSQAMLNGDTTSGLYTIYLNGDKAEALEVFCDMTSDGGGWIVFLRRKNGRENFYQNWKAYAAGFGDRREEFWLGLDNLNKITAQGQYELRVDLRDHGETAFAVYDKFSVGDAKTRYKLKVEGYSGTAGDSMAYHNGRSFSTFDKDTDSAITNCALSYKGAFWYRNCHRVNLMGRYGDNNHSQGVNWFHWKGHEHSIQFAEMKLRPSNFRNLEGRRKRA
Procedure: as §1

[4] = biological target: T4, human fibrinogen (human, UniProt P02671 20-644; P02675 31-491; P02679 27-437, limits assumed); assay: as above
T4 construct: Coated on ELISA plates at 100 nM; also called Fg
T4 sequence (looked up) 1: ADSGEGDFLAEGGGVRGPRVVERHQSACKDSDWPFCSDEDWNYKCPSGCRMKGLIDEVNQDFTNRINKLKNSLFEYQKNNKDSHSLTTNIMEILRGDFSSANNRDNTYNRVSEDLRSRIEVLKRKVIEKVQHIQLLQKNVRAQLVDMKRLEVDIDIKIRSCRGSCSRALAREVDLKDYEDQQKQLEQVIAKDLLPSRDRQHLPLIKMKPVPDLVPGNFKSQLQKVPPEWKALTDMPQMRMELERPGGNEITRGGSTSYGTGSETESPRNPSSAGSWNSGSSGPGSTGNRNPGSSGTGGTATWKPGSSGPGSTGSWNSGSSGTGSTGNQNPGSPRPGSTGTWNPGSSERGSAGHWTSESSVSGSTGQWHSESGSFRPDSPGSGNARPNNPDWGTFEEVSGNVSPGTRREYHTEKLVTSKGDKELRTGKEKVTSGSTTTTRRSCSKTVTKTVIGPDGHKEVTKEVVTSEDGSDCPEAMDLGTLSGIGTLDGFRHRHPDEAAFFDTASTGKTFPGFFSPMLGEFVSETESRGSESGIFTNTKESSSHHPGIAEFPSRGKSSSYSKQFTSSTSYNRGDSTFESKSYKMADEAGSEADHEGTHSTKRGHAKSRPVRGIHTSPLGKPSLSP
T4 sequence (looked up) 2: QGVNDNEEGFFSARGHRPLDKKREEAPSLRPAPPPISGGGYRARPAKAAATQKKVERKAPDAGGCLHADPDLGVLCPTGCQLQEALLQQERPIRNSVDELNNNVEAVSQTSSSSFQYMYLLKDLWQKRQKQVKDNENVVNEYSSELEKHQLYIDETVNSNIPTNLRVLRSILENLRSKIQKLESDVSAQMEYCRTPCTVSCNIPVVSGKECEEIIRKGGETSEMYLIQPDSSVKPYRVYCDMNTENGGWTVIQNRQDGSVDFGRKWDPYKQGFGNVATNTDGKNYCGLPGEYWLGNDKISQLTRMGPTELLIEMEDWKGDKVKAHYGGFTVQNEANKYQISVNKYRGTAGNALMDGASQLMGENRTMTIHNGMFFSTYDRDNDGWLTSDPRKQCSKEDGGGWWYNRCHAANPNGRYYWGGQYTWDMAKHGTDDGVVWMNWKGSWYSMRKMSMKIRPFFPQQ
T4 sequence (looked up) 3: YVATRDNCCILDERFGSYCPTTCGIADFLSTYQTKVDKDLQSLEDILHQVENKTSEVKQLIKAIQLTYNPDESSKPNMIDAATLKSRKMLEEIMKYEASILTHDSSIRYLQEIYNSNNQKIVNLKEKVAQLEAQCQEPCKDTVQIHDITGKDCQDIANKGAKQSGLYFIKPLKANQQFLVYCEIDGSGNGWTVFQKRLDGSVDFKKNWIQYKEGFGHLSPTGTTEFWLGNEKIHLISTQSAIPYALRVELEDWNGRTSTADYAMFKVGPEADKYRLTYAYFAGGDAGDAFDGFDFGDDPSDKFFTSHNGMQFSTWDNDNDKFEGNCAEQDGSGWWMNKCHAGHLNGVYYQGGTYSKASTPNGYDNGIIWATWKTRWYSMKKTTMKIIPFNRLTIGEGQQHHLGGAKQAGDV
Procedure: as §1

[5] = biological target: T1, human plasma fibronectin; assay: ELISA, one site specific binding fit
[6] = biological target: T2, human vitronectin; assay: ELISA, one site specific binding fit
[7] = biological target: T3, human tenascin C; assay: ELISA, one site specific binding fit
[8] = biological target: T4, human fibrinogen; assay: ELISA, one site specific binding fit
[9] = biological target: T1, human plasma fibronectin; assay: ELISA of fragments
[10] = biological target: T2, human vitronectin; assay: ELISA of fragments
[11] = biological target: T4, human fibrinogen; assay: ELISA of fragments
[12] = biological target: T1, human plasma fibronectin; assay: ELISA; GST-fused fragment at 100 nM on coated ECM protein, anti-GST detection
Procedure: (§2) ELISA plates (96-Well Medium Binding, Greiner bio-one) were coated with solutions of 100 nM of human plasma fibronectin (Sigma), human vitronectin (Peprotech), human tenascin C (R&D Systems), or human fibrinogen (Enzyme Research Laboratories) in PBS for 1 h at 37° C. Wells were washed with washing buffer (PBS-T, PBS with 0.05% Tween-20) and blocked with 1% BSA in PBS-T for 1 h at room temperature. Then, wells were incubated with 100 nM of GST-fused PIGF fragments (in PBS-T with 0.1% BSA) for 1 h at room temperature. GST (100 nM) was used as negative control. Wells were washed 3 times with washing buffer and incubated with 0.1 μg/ml of HRP-conjugated antibody against GST (GE Healthcare, RPN1236V) in PBS-T with 0.1% BSA for 45 min at room temperature. Wells were washed 3 times with PBS-T and detection was done with tetramethylbenzidine substrate and measurement of the absorbance at 450 nm.

[13] = biological target: T2, human vitronectin; assay: as above
Procedure: as §2

[14] = biological target: T4, human fibrinogen; assay: as above
Procedure: as §2

T1 sequence (P02751 other isoform, or with tags, fused parts or gaps limits assumed): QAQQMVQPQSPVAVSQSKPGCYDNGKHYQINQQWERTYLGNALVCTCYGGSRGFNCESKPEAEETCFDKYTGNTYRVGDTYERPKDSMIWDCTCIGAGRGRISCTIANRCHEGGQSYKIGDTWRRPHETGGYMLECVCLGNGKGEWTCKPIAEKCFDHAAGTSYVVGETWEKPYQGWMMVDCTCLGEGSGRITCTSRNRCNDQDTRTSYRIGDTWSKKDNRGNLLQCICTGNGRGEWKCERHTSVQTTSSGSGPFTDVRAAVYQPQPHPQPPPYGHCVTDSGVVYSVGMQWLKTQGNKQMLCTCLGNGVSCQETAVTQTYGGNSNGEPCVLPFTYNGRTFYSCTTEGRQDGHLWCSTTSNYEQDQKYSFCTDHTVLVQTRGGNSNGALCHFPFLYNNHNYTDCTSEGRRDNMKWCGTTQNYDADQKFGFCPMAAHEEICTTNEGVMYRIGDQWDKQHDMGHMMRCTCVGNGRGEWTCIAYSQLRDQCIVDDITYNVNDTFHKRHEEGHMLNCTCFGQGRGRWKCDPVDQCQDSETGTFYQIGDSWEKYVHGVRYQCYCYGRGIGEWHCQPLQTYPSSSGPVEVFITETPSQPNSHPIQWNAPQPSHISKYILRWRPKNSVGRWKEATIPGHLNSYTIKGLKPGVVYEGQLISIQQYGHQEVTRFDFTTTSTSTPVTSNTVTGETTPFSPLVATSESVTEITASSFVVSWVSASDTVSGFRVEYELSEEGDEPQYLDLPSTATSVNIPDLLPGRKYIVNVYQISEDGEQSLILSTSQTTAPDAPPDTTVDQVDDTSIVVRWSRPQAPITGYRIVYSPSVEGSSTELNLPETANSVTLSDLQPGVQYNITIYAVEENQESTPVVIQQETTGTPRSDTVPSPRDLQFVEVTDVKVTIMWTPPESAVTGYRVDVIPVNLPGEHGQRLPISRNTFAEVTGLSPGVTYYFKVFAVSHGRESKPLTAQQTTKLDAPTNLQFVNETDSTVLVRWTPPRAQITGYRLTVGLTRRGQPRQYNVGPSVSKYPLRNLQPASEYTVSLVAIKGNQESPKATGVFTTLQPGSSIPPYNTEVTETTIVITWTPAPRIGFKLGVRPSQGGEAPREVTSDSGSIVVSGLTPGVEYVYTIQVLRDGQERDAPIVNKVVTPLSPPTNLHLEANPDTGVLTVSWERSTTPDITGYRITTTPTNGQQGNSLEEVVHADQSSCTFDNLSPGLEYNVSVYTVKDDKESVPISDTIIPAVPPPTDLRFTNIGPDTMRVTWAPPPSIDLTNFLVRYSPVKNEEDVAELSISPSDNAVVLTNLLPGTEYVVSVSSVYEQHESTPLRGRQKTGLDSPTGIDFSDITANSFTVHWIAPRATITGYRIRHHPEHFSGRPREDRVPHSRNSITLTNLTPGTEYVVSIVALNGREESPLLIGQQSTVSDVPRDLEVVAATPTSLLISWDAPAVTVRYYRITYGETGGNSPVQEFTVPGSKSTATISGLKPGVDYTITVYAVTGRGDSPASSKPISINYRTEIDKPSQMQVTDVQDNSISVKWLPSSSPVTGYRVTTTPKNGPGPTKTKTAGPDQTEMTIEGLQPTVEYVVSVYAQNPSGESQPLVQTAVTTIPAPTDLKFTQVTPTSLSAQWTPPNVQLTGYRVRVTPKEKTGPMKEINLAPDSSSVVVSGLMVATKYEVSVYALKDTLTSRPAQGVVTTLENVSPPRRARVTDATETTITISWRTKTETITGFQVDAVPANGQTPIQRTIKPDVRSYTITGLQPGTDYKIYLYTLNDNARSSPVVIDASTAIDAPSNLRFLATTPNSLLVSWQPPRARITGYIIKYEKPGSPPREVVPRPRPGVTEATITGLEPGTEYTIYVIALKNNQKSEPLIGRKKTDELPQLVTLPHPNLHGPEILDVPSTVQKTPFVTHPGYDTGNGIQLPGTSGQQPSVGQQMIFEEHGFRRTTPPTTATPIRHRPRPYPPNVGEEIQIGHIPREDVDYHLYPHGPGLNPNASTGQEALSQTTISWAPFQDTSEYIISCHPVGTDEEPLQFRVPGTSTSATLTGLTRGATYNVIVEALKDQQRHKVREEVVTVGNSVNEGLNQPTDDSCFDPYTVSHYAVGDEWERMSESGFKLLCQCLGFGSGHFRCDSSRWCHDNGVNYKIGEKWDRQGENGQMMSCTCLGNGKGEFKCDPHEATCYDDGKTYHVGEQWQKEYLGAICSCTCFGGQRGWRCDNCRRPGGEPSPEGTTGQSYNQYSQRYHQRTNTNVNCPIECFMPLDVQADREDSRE

Row | Binder | Kd [1] [µM] | Kd [2] [µM] | Kd [3] [µM] | Kd [4] [µM] | Kd [5] [µM] | Kd [6] [µM] | also measured
1 | IL-1Ra (murine wild-type interleukin-1 receptor antagonist) (ligand, also called wild-type IL-1Ra; IL-1 receptor antagonist) MRPSGKRPCKMQAFRIWDTNQKTFYLRNNQLIAGYLQGPNIKLEEKIDMVPIDLHSVFLGIHGGKLCLSCAKSGDDIKLQLEEVNITDLSKNKEEDKRFTFIRSEKGPTTSFESAACPGWFLCTTLEADRPVSLTNTPEEPLIVTKFYFQEDQ | 0.129 | 0.0732 | 0.113 | 0.663 | – | – | –
2 | PDGF-BB/PIGF123-141 (other, not shown: 6x histidine tag at the N-terminus) SLGSLAAAEPAVIAECKTRTEVFQISRNLIDRTNANFLVWPPCVEVQRCSGCCNNRNVQCRASQVQMRPVQVRKIEIVRKKPIFKKATVTLEDHLACKCETIVTPRPVTRRRPKGRGKRRREKQRPTD | 0.0177 | 0.0014 | 0.025 | 0.0167 | – | – | –
3 | amphiregulin (AREG) (ligand, UniProt P15514 101-198, looked up) SVRVEQVVKPPQNKTESENTSDKPKRKKKGGKNGKNRRNRKKKNPCNAEFQNFCIHGECKYIEHLEAVTCKCQQEYFGERCGEKSMKTHSMIDSSLSK | – | – | – | – | 0.0086 | 0.0138 | Kd [7]: 0.0368 µM; Kd [8]: 0.0082 µM
4 | neurturin (NRTN) (ligand, UniProt Q99748 96-197, looked up) ARLGARPCGLRELEVRVSELGLGYASDETVLFRYCAGACEAAARVYDLGLRRLRQRRRLRRERVRAQPCCRPTAYEDEVSFLDAHSRYHTVHELSARECACV | – | – | – | – | 0.0502 | 0.0276 | –
5 | RRLRQRRRLRRE (also: fused to GST (vector linker letters not given here), letters not given here, Cloned into pGEX6P-1, expressed in E. coli BL21, and purified on GSTrap and His-tag columns; not shown: GST encoded by the expression vector pGEX6P-1; a His tag is implied by purification on a His-tag HP column) [NRTN146-157 fragment (GST-fused construct from pGEX6P-1)] | – | – | – | – | – | – | binding result [9]: binds; binding result [10]: binds; binding result [11]: binds
6 | IL-1Ra/PIGF123-141 (other) MNHKVHHHHHHMRPSGKRPCKMQAFRIWDTNQKTFYLRNNQLIAGYLQGPNIKLEEKIDMVPIDLHSVFLGIHGGKLCLSCAKSGDDIKLQLEEVNITDLSKNKEEDKRFTFIRSEKGPTTSFESAACPGWFLCTTLEADRPVSLTNTPEEPLIVTKFYFQEDQRRRPKGRGKRRREKQRPTD | 0.0219 | 0.0007 | 0.0207 | 0.0435 | – | – | –
7 | RRRPKGRGKRRREKQRPTD-6xHis (not fully specified (N-terminus); also: fused to GST (vector linker letters not given here), Expressed in E. coli BL21 (DE3), purified on GSTrap and then HisTrap, and used at 100 nM in the ELISA; not shown: glutathione S-transferase (GST) encoded by the expression vector pGEX6P-1; histidine tag (6xHis) added at the C-terminus of the fragment) [GST-fused PIGF123-141 fragment] | – | – | – | – | – | – | binding result [12]: binds; binding result [13]: binds; binding result [14]: binds
8 | RKKKGGKNGKNRR (also: fused to GST (vector linker letters not given here), letters not given here, Cloned into pGEX6P-1, expressed in E. coli BL21, and purified on GSTrap and His-tag columns; not shown: GST encoded by the expression vector pGEX6P-1; a His tag is implied by purification on a His-tag HP column) [AREG126-138 fragment (GST-fused construct from pGEX6P-1)] | – | – | – | – | – | – | binding result [9]: binds; binding result [10]: binds; binding result [11]: binds
9 | Placenta growth factor-2 (PIGF-2) (ligand) LPAVPPQQWALSAGNGSSEVEVVPFQEVWGRSYCRALERLVDVVSEYPSEVEHMFSPSCVSLLRCTGCCGDENLHCVPVETANVTMQLLKIRSGDRPSYVELTFSQHVRCECRPLREKMKPERRRPKGRGKRRREKQRPTDCHLCGDAVPRR | – | – | – | – | 0.0116 | 0.0139 | Kd [7]: 0.0166 µM; Kd [8]: 0.0099 µM
10 | PDGF-BB (murine wild-type platelet-derived growth factor-BB) (ligand, UniProt P31240 82-190, looked up, also called wild-type PDGF-BB) SLGSLAAAEPAVIAECKTRTEVFQISRNLIDRTNANFLVWPPCVEVQRCSGCCNNRNVQCRASQVQMRPVQVRKIEIVRKKPIFKKATVTLEDHLACKCETIVTPRPVT | 0.0675 | 0.0321 | 0.0943 | 0.206 | – | – | –

From patent publication US20230272045A1 (MONASH UNIVERSITY, published 2023)
